Results: paper PMC4817975 (PLoS ONE, 2016)
Where two headings read alike, the source gives them in different places.

Tests used:
KOR = molecular target: KOR; design: method as in PMID 22437504, PMID 15956349; conditions: literature value; cited from earlier work
[1] = molecular target: T1, Human kappa opioid receptor (KOR) reconstituted in Nanodiscs (Homo sapiens, UniProt P41145); conditions: SPA saturation binding, one-site model
T1 construct: made in house; host or cells: Pichia pastoris (KOR)
T1 sequence (P41145 whole entry): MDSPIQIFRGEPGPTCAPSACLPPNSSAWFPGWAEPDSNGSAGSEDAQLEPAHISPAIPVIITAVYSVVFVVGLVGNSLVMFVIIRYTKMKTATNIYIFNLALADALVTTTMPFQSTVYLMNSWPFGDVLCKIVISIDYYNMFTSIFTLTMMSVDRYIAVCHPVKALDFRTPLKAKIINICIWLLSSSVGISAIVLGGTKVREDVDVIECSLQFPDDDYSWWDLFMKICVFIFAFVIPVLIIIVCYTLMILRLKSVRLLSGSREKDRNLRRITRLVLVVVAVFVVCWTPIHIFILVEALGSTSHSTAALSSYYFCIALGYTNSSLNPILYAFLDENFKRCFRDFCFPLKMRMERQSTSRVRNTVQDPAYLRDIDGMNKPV
Experimental: In parallel non-specific binding was measured in the presence of 50 μM naloxone. […] Therefore, saturation and inhibition binding assays were performed with reduced SPA beads/well; 0.25 mg/well of streptavidin-coated SPA YSI beads. […] Ki was measured from the IC50 value.

[2] = molecular target: T2, Human kappa opioid receptor (KOR) (Homo sapiens, UniProt P41145); test: Radioligand filter binding assay (saturation), KOR in P. pastoris membranes; conditions: one-site model, read-out: KD, P.Pastoris membrane
T2 construct: made in house; host or cells: Pichia pastoris
T2 sequence (P41145 whole entry): as above
Experimental: Specific ligand binding to KOR in P. pastoris membranes was measured by radioligand filter binding assay. Isolated P. pastoris membranes were diluted in binding buffer (50 mM Tris-HCl pH 7.4, 0.5 M NaCl, 1mg/ml BSA) and mixed in triplicates with radioligand [^3H]-diprenorpine (DPN, 42.3 Ci/mmol, Perkin Elmer) in concentrations varying from 0.08 to 10 nM in a 96 well plate (MultiScreen HTS-FC 1.2/0.65 μm glass fiber filter), which was pre-wetted in washing buffer (50 mM Tris-HCl buffer, pH 7.4). Non-specific binding was measured in parallel by including 50 μM naloxone. For each binding experiment, membranes corresponding to 3–5 μg/well were used keeping the ratio of bound radioligand <10% of the total added radioligand. The assay mixture was incubated for 2 h at room temperature. To separate bound from free ligands, the plate was rapidly filtrated and washed four times with 100 μl ice-cold washing buffer. Scintillation liquid (Ultima Gold XR, Perkin Elmer) was added to the wells and the assay was counted by a liquid scintillation counter (Wallac Microbeta TriLux 1450). Specific binding was calculated and KD was measured from saturation curves fitted to a one-site binding model using Igor Pro 6.1.

[3] = molecular target: T2, Human kappa opioid receptor (KOR); test: Time-resolved SPA stability assay of high-affinity [3H]-DPN binding; conditions: for τ1, exponential time constant: exponential decay fit; for N1, initial active receptor population: exponential decay fit (single for DDM, double for Nanodiscs)
Experimental: All procedures were performed on ice or at 4°C until assay counting was initiated at room temperature (23°C). Time-resolved stability assay with detergent-extracted MPs was carried out directly after solubilization in binding buffer I (20 mM Tris-HCl, pH 7.4, 500 mM NaCl, 5% glycerol, 1 mM PMSF, 0.1 mM TCEP, 0.4% BSA). Solubilized proteins were diluted in the assay resulting in a final concentration of 0.1% DDM in the assay buffer. Stability assays performed with KOR reconstituted in Nanodiscs were done in binding buffer II (20 mM Tris-HCl pH 7.4, 100 mM NaCl pH 7.4, 0.4% BSA). KOR/Nanodisc samples were added at quantities corresponding to approximately 30 fmol/well. Samples were mixed with 0.5 mg/well yttrium silicate (YSi) streptavidin coated SPA beads (Perkin Elmer) in binding buffer and a final concentrations of 10 nM [^3H]-DPN (42.3 Ci/mmol, Perkin Elmer) in a total volume of 200 μl. In parallel, the non-specific binding was measured including 50 μM naloxone in the assay. All measurements were performed in triplicates in a white-wall clear-bottom 96-well plate (Wallac). The assay was gently shaken on a vibrating platform at 4°C for 1.5 hours to equilibrate ligand binding and immobilization of receptors on the SPA beads. After incubation the assay was counted with a liquid scintillation counter (Wallac Microbeta TriLux 1450, SPA cpm mode) repeatedly with 17 min between measurements at room temperature. As a control, the same assay conditions as described above were performed at RT and bound and free radioligands were separated at specific time points on Sephadex G-50 gravity-flow columns (GE Healthcare) equilibrated in binding buffer. After applying 50 μl of samples, columns were centrifuged for 2 min at 1000 x g. Separated samples were mixed with scintillation liquid and incubated for 1 hour at RT, before counting on a liquid scintillation counter. As data analysis, specific binding was normalized to the initial binding at time zero, corresponding to initiation of assay counting at RT. The half-life of high-affinity ligand binding was calculated from fitting to single or double exponential decay functions in Igor Pro 6.1.

[4] = 10 nM [3H]-DPN, 23°C, double exponential fit

| Substance | Kd (KOR) | Kd [1] | Kd ([1]; listed as [^3H]-DPN) | Kd ([2]; listed as [^3H]-DPN) | Kd [2] | N2, initial active receptor population (slow component) [3, 4] | τ2, exponential time constant [3, 4] | N2, initial active receptor population (slow component) ([3]; 10 nM [3H]-DPN, 23°C, double exponential fit, listed as KOR reconstituted in Nanodiscs) | τ1, exponential time constant ([3]; 10 nM [3H]-DPN, 23°C) | N1, initial active receptor population ([3]; 10 nM [3H]-DPN, 23°C) | ligand binding relative to the initial activity after 100 minutes ([3]; after counting for 100 minutes at room temperature, n = 5) | stability improvement (Taverage in Nanodiscs vs half-life in DDM micelles) ([3]; from fitted curves) | time to complete loss of ligand binding activity ([3]; room temperature (23°C), 10 nM [3H]-DPN) |
| --- | --- | --- | --- | --- | --- | --- | --- | --- | --- | --- | --- | --- | --- |
| diprenorpine [[3H]-DPN] | 800 pM | 800 ± 200 pM | 840 ± 150 pM | 940 ± 140 pM | 900 ± 100 pM |  |  |  |  |  |  |  |  |
| KOR in Nanodiscs: human kappa opioid receptor reconstituted in MSP1E3D1 Nanodiscs with POPC:POPG 3:2 |  |  |  |  |  | 68.9 ± 0.7% | 36.8 ± 1.6 h | 68.9% | 1.2 ± 0.1 h | 29.4 ± 0.8% | 73.5 ± 2.5% | approximately 70 fold |  |
| KOR in DDM micelles: human kappa opioid receptor solubilized in DDM/CHS, 0.1%/0.02% in the assay |  |  |  |  |  |  |  |  | 0.4 ± 0.01 h | 97.4 ± 1.5% |  |  | ≤ 100 min |
